{"source": "paper PMC5884298", "molecular_target": "thrombin (UniProt P00734;P00734 328-363;364-622)", "assay": "SERS mapping on gold nanopillars; thrombin 0.0873-87.3 nM; complex bands 822, 1140, 1558 cm-1; no Kd given; Thiolated aptamer on gold-coated Si nanopillars, MCH passivation (stated for quadruplex control); PBS pH 7.4 listed; thrombin incubation buffer and temperature"}
{"binder": "GGTTGGTGTGGTTGG (structured_DNA, 5'-HS-(CH2)6 thiol linker (printed HS-(CH2)5-CH2-D/))", "note": "[TBA15 (thiolated thrombin-binding aptamer)]", "values": [{"measurement": "binding result", "value": "binds"}]}
